Laboratory results published in publication PMC5419745 (eLife, 2017).
Read-outs that look alike come from different tables or passages of the source.

Key:
Assay in all cases: ITC; iTC200, 25°C, 20 mM sodium phosphate, pH 7.4, 150 mM NaCl; both partners dialysed against the same buffer
[1] = biological target: Hsa NCOA2 CID (TIF2) (human)
[2] = biological target: Hsa NCOA1 CID (SRC1) (human)
Hsa p53TAD (human) = Hsa p53TAD (human) (UniProt P04637)
Hsa ETS-2 PNT (human) = Hsa ETS-2 PNT (human) (UniProt P15036)
[3] = biological target: Hsa NCOA3 CID (ACTR) (human) (UniProt Q9Y6Q9)
[4] = biological target: Hsa NCOA1 CID (SRC1) (human); remark: listed apart in the source
Target sequence in this assay (Q15788 1040-1081): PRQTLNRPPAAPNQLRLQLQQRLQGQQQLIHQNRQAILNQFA

Fish/Tetrapod NCOA3 CID = biological target: Fish/Tetrapod NCOA3 CID
[5] = biological target: Hsa NCOA2 CID (TIF2) (human); remark: listed apart in the source
[6] = biological target: T1, Hsa ETS-2 PNT (human), P15036
T1 chain: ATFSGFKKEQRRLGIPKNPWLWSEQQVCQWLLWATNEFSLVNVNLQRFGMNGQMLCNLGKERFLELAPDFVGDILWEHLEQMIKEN

1R CID = biological target: 1R CID
1R CID G1080S = biological target: 1R CID G1080S
1R CID S1078Q = biological target: 1R CID S1078Q
1R CID S1058N = biological target: 1R CID S1058N
Hsa p53TAD = biological target: T2, Hsa p53TAD (human, UniProt P04637 1-61); details: both partners purified
T2 construct: source: expressed and purified as previously described (Dogan et al., 2015)

Hsa NCOA3 CID (ACTR) = biological target: T3, Hsa NCOA3 CID (ACTR) (human, UniProt Q9Y6Q9-3 1040-1081); details: both partners purified
T3 construct: numbers count on: splice variant NCOA3-002 (ENST00000371997); pRSET vector; also called human NCOA3 CID; ACTR CID
T3 chain (looked up): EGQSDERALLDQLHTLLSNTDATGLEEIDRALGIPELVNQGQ

Hsa ETS-2 PNT = biological target: T4, Hsa ETS-2 PNT (human, UniProt P15036 85-170); details: both partners purified
T4 construct: pointed (PNT) domain of human ETS-2; also called globular pointed (PNT) domain from human ETS-2; PNT domain of ETS-2; source: expressed and purified as previously described (Dogan et al., 2015)
T4 sequence (looked up): T1 chain

T2 sequence (P04637 1-61): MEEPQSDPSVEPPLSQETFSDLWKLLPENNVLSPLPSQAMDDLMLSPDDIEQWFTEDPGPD
Chain of Hsa p53TAD (human) (P04637 1-61): as above

“Hsa CREBBP NCBD Y2108Q (from UniProt Q92793 2062-2109) (domain or fragment)” showed a Kd [1] of 210 nM.

For Hsa p300 NCBD (domain or fragment), the Kd [2] was 180 nM, the Kd (Hsa p53TAD (human)) was 9200 nM and the Kd [1] was 71 nM. It also gave a Kd (Hsa ETS-2 PNT (human)) of 1500 nM and a Kd [3] of 110 nM.

“Hsa CREBBP NCBD A2106Q/Y2108Q (from UniProt Q92793 2062-2109) (domain or fragment)” gave a Kd [1] of 220 nM.

Pma NCBD (domain or fragment) gave a Kd [2] of 190 nM, a Kd [1] of 44 nM and a Kd (Hsa ETS-2 PNT (human)) of 1000 nM. The Kd [3] was 230 nM.

Work on “Hsa CREBBP NCBD A2106Q (from UniProt Q92793 2062-2109) (domain or fragment)” yielded a Kd [1] of 100 nM.

Work on “Hsa CREBBP NCBD (from UniProt Q92793 2062-2109) (domain or fragment)” yielded a Kd [2] of 330 nM and a Kd [1] of 130 nM.

Dmel NCBD (domain or fragment) showed a Kd [2] of 5200 nM, a Kd [1] of 22000 nM and a Kd [3] of 37000 nM.

For ITPGALQDLLRTLKSPSSPQQQQQVLNILKSNPHLMAAFIKQRTAKYQ (domain or fragment, modifications not checked) [Dre CREBBP NCBD], the Kd [4] was 290 nM, the Kd (Fish/Tetrapod NCOA3 CID) was 570 nM and the Kd [5] was 230 nM.

For IPPNALQDLLRTLKSPSSPQQQQQVLNILKSNPQLMAAFIKQRTAKYQ (domain or fragment, modifications not checked) [Fish/Tetrapod CREBBP NCBD], the Kd [6] was 1300 nM and the Kd (Fish/Tetrapod NCOA3 CID) was 410 nM.

In the case of IPPNALQDLLRTLRSPSSPQQQQQVLNILKSNPQLMAAFIKQRAAKYQ (domain or fragment, modifications not checked) [1R/2R NCBD], the Kd (1R CID) is reported as 200 nM, the Kd [4] is reported as 110 nM and the Kd [6] is reported as 850 nM. It also gave a Kd (1R CID G1080S) of 240 nM, a Kd (1R CID S1078Q) of 250 nM and a Kd [5] of 45 nM. For the same molecule, the Kd (1R CID S1058N) was 220 nM.

IPPSALQDLLRTLRSPSSPQQQQQVLNILKSNPQLMAAFIKQRAAKYQ (domain or fragment, modifications not checked) [1R/2R NCBD N2065S] gave a Kd (1R CID) of 130 nM.

IPPSALQDLLRTLRSPSSPQQQQQVLNILKSNPQLMAAFIKQRAARYQ (domain or fragment, modifications not checked) [1R/2R NCBD N2065S K2107R] gave a Kd (1R CID) of 170 nM and a Kd (1R CID G1080S) of 130 nM.

B1: Hsa CREBBP NCBD (domain or fragment, human)
chain: GSISPSALQDLLRTLKSPSSPQQQQQVLNILKSNPQLMAAFIKQRTAKYV
notes: Gly-Ser left at the N-terminus from the expression construct; NCBD domain of human CREBBP; pRSET vector; also called human CREBBP NCBD
Work on B1 yielded a Kd (1R CID) of 380 nM, a Kd (Hsa p53TAD) of 84000 nM and a Kd (Hsa NCOA3 CID (ACTR)) of 350 nM. For the same molecule, the Kd (Hsa ETS-2 PNT) was 760 nM.
